Measurements reported in PMC9482650, “Quantitative fragmentomics allow affinity mapping of interactomes” (Nature Communications, 2022).

T1: ARHGAP21, Q5T5U3
T1 sequence (Q5T5U3 45-169, limits assumed, looked up): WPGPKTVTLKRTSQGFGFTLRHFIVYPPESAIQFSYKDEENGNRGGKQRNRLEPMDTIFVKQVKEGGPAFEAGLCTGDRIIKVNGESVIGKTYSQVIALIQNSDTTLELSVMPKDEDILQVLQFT

T2: DFNB31_2, Q9P202
T2 sequence (Q9P202 274-371, limits assumed, looked up): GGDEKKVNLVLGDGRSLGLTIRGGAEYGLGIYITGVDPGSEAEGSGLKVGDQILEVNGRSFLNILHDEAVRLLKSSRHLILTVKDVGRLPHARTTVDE

T3: DFNB31_3, Q9P202
T3 sequence (Q9P202 811-907, limits assumed, looked up): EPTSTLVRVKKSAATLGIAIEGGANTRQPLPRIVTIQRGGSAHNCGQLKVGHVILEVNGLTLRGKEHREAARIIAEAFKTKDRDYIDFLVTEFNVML

T4: DLG3_2, Q92796
T4 sequence (Q92796 221-321, limits assumed, looked up): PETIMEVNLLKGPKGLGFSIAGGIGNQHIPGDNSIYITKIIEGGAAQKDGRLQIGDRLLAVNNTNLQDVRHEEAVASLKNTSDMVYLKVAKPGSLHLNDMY

T5: GRIP1_4, Q9Y3R0
T5 sequence (Q9Y3R0 467-571, limits assumed, looked up): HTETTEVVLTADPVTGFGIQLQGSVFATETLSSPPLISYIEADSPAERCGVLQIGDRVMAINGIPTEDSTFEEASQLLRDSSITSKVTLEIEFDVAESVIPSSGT

T6: MPDZ_10, O75970
T6 sequence (O75970 1624-1722, limits assumed, looked up): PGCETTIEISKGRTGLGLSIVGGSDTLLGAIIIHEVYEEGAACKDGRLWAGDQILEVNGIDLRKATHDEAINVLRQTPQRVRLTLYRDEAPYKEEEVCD

T7: MPDZ_12, O75970
T7 sequence (O75970 1857-1958, limits assumed, looked up): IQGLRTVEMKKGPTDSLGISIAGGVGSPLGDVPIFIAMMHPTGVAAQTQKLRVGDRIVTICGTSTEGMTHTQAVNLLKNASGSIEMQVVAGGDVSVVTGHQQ

T8: MPDZ_5, O75970
T8 sequence (O75970 695-796, limits assumed, looked up): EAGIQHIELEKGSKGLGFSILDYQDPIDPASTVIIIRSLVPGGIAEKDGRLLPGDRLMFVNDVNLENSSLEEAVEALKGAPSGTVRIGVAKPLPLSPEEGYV

T9: MPP7, Q5T2T1
T9 sequence (Q5T2T1 134-230, limits assumed, looked up): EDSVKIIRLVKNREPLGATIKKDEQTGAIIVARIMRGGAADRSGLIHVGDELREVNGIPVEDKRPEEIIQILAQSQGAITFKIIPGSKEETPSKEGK

T10: PDZD2_2, O15018
T10 sequence (O15018 329-429, limits assumed, looked up): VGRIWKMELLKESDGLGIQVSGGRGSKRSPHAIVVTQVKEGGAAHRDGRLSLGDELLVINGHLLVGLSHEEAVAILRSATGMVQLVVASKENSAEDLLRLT

T11: PDZRN3_1, Q9UPQ7
T11 sequence (Q9UPQ7 244-349, limits assumed, looked up): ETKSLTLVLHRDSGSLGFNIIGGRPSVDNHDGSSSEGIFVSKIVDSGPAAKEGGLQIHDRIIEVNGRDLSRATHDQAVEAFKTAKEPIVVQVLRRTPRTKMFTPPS

T12: SNTA1, Q13424
T12 sequence (Q13424 82-180, limits assumed, looked up): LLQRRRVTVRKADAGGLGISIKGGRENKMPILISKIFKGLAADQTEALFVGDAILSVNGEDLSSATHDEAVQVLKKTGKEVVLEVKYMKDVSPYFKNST

T13: TX1BP3, O14907
T13 sequence (O14907 10-122, limits assumed, looked up): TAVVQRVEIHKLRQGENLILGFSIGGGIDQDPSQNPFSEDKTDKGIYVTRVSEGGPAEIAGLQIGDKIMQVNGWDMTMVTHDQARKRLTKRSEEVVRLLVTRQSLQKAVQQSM


target: T1, ARHGAP21, Q5T5U3; experiment: holdup assay; parameters: key: below the threshold = too weak to quantify, mostly under pKd 3.1 to 4; conditions: plain residues with an end cap or a label only (N-terminal biotin on a linker: ado-ado)

pKd	Binder
below the threshold	LESTTVGTSV [KARS1, Q15046]

target: T2, DFNB31_2, Q9P202; experiment: holdup assay; parameters: key: below the threshold = too weak to quantify, mostly under pKd 3.1 to 4; conditions: plain residues with an end cap or a label only (N-terminal biotin on a linker: ado-ado)

pKd	Binder
below the threshold	LESTTVGTSV [KARS1, Q15046]

target: T3, DFNB31_3, Q9P202; experiment: holdup assay; parameters: key: below the threshold = too weak to quantify, mostly under pKd 3.1 to 4; conditions: plain residues with an end cap or a label only (N-terminal biotin on a linker: ado-ado)

pKd	Binder
below the threshold	LESTTVGTSV [KARS1, Q15046]

target: T4, DLG3_2, Q92796; experiment: holdup assay; parameters: key: below the threshold = too weak to quantify, mostly under pKd 3.1 to 4; conditions: plain residues with an end cap or a label only (N-terminal biotin on a linker: ado-ado)

pKd	Binder
4.51	LESTTVGTSV [KARS1, Q15046]

target: FRMPD3, Q5JV73; experiment: holdup assay; parameters: key: below the threshold = too weak to quantify, mostly under pKd 3.1 to 4; conditions: plain residues with an end cap or a label only (N-terminal biotin on a linker: ado-ado)
Sequence (Q5JV73 12-100): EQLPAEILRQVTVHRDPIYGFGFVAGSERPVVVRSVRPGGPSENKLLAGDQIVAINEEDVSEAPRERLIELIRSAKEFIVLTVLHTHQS

pKd	Binder
below the threshold	LESTTVGTSV [KARS1, Q15046]

target: T5, GRIP1_4, Q9Y3R0; experiment: holdup assay; parameters: key: below the threshold = too weak to quantify, mostly under pKd 3.1 to 4; conditions: plain residues with an end cap or a label only (N-terminal biotin on a linker: ado-ado)

pKd	Binder
below the threshold	LESTTVGTSV [KARS1, Q15046]

target: GRIP2_6, Q9C0E4; experiment: holdup assay; parameters: key: below the threshold = too weak to quantify, mostly under pKd 3.1 to 4; conditions: plain residues with an end cap or a label only (N-terminal biotin on a linker: ado-ado)
Sequence (Q9C0E4 648-740): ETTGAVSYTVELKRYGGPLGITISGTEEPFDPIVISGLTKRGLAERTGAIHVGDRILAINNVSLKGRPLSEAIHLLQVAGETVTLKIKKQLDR

pKd	Binder
below the threshold	LESTTVGTSV [KARS1, Q15046]

target: HTRA1, Q92743; experiment: holdup assay; parameters: key: below the threshold = too weak to quantify, mostly under pKd 3.1 to 4; conditions: plain residues with an end cap or a label only (N-terminal biotin on a linker: ado-ado)
Sequence (Q92743 360-477): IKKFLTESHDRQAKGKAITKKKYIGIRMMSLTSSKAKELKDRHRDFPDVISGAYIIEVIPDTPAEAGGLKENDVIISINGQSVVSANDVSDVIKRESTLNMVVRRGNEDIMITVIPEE

pKd	Binder
3.95	LESTTVGTSV [KARS1, Q15046]

target: IL16_1, Q14005; experiment: holdup assay; parameters: key: below the threshold = too weak to quantify, mostly under pKd 3.1 to 4; conditions: plain residues with an end cap or a label only (N-terminal biotin on a linker: ado-ado)
Sequence (Q14005 210-306): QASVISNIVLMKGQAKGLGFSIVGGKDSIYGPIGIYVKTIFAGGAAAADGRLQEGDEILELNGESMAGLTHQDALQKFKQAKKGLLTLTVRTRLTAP

pKd	Binder
3.79	LESTTVGTSV [KARS1, Q15046]

target: Inadl_3, Q8NI35; experiment: holdup assay; parameters: key: below the threshold = too weak to quantify, mostly under pKd 3.1 to 4; conditions: plain residues with an end cap or a label only (N-terminal biotin on a linker: ado-ado)
Sequence (Q8NI35 359-469): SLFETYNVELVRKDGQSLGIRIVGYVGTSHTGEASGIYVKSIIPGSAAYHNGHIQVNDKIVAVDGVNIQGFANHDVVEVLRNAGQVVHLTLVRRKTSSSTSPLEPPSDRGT

pKd	Binder
below the threshold	LESTTVGTSV [KARS1, Q15046]

target: Inadl_4, Q8NI35; experiment: holdup assay; parameters: key: below the threshold = too weak to quantify, mostly under pKd 3.1 to 4; conditions: plain residues with an end cap or a label only (N-terminal biotin on a linker: ado-ado)
Sequence (Q8NI35 547-651): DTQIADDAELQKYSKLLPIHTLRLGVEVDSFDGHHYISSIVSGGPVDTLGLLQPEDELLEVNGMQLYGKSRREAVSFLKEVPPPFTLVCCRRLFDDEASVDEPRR

pKd	Binder
below the threshold	LESTTVGTSV [KARS1, Q15046]

target: LIMK2, P53671; experiment: holdup assay; parameters: key: below the threshold = too weak to quantify, mostly under pKd 3.1 to 4; conditions: plain residues with an end cap or a label only (N-terminal biotin on a linker: ado-ado)
Sequence (P53671 143-248): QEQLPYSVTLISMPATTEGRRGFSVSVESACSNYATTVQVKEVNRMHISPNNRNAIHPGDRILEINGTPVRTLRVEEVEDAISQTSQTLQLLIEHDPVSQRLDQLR

pKd	Binder
below the threshold	LESTTVGTSV [KARS1, Q15046]

target: MAGI2_2, Q86UL8; experiment: holdup assay; parameters: key: below the threshold = too weak to quantify, mostly under pKd 3.1 to 4; conditions: plain residues with an end cap or a label only (N-terminal biotin on a linker: ado-ado)
Sequence (Q86UL8 410-522): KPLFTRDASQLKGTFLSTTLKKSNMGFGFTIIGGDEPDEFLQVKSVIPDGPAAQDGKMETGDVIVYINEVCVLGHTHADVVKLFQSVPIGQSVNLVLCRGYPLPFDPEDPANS

pKd	Binder
below the threshold	LESTTVGTSV [KARS1, Q15046]

target: MAGI3_2, Q5TCQ9; experiment: holdup assay; parameters: key: below the threshold = too weak to quantify, mostly under pKd 3.1 to 4; conditions: plain residues with an end cap or a label only (N-terminal biotin on a linker: ado-ado)
Sequence (Q5TCQ9 398-503): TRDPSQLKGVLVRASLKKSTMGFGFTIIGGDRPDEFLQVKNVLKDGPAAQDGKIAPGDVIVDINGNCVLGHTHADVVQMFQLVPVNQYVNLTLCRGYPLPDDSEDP

pKd	Binder
4.09	LESTTVGTSV [KARS1, Q15046]

target: T6, MPDZ_10, O75970; experiment: holdup assay; parameters: key: below the threshold = too weak to quantify, mostly under pKd 3.1 to 4; conditions: plain residues with an end cap or a label only (N-terminal biotin on a linker: ado-ado)

pKd	Binder
3.72	LESTTVGTSV [KARS1, Q15046]

target: T7, MPDZ_12, O75970; experiment: holdup assay; parameters: key: below the threshold = too weak to quantify, mostly under pKd 3.1 to 4; conditions: plain residues with an end cap or a label only (N-terminal biotin on a linker: ado-ado)

pKd	Binder
3.62	LESTTVGTSV [KARS1, Q15046]

target: T8, MPDZ_5, O75970; experiment: holdup assay; parameters: key: below the threshold = too weak to quantify, mostly under pKd 3.1 to 4; conditions: plain residues with an end cap or a label only (N-terminal biotin on a linker: ado-ado)

pKd	Binder
below the threshold	LESTTVGTSV [KARS1, Q15046]

target: T9, MPP7, Q5T2T1; experiment: holdup assay; parameters: key: below the threshold = too weak to quantify, mostly under pKd 3.1 to 4; conditions: plain residues with an end cap or a label only (N-terminal biotin on a linker: ado-ado)

pKd	Binder
below the threshold	LESTTVGTSV [KARS1, Q15046]

target: PDLIM1, O00151; experiment: holdup assay; parameters: key: below the threshold = too weak to quantify, mostly under pKd 3.1 to 4; conditions: plain residues with an end cap or a label only (N-terminal biotin on a linker: ado-ado)
Sequence (O00151 1-87): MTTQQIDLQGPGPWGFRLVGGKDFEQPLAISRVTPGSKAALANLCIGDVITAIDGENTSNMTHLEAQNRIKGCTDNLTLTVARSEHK

pKd	Binder
below the threshold	LESTTVGTSV [KARS1, Q15046]

target: T10, PDZD2_2, O15018; experiment: holdup assay; parameters: key: below the threshold = too weak to quantify, mostly under pKd 3.1 to 4; conditions: plain residues with an end cap or a label only (N-terminal biotin on a linker: ado-ado)

pKd	Binder
4.87	LESTTVGTSV [KARS1, Q15046]

target: T11, PDZRN3_1, Q9UPQ7; experiment: holdup assay; parameters: key: below the threshold = too weak to quantify, mostly under pKd 3.1 to 4; conditions: plain residues with an end cap or a label only (N-terminal biotin on a linker: ado-ado)

pKd	Binder
4.24	LESTTVGTSV [KARS1, Q15046]

target: T12, SNTA1, Q13424; experiment: holdup assay; parameters: key: below the threshold = too weak to quantify, mostly under pKd 3.1 to 4; conditions: plain residues with an end cap or a label only (N-terminal biotin on a linker: ado-ado)

pKd	Binder
below the threshold	LESTTVGTSV [KARS1, Q15046]

target: TJP1_2, Q07157; experiment: holdup assay; parameters: key: below the threshold = too weak to quantify, mostly under pKd 3.1 to 4; conditions: plain residues with an end cap or a label only (N-terminal biotin on a linker: ado-ado)
Sequence (Q07157 181-274): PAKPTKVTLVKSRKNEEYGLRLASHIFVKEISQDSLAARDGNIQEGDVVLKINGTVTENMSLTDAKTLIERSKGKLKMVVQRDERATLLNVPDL

pKd	Binder
below the threshold	LESTTVGTSV [KARS1, Q15046]

target: T13, TX1BP3, O14907; experiment: holdup assay; parameters: key: below the threshold = too weak to quantify, mostly under pKd 3.1 to 4; conditions: plain residues with an end cap or a label only (N-terminal biotin on a linker: ado-ado)

pKd	Binder
3.6	LESTTVGTSV [KARS1, Q15046]
